Source: paper PMC2187331
Like-named read-outs stand apart in the source and are kept apart here.

Key:
Assay in all cases: rosette formation
[1] = target: C receptor type 1, the C3b receptor (human (endogenous in erythrocytes, monocytes and neutrophils)) (UniProt P17927)
[2] = target: C receptor type 1, the C3b receptor (human (endogenous in erythrocytes, monocytes and neutrophils)) (UniProt P17927); remark: listed apart in the source
[3] = target: C receptor type 3, iC3b receptor (human (endogenous in monocytes and neutrophils)) (UniProt P11215)
[4] = target: C receptor type 3, iC3b receptor (human (endogenous in monocytes and neutrophils)) (UniProt P11215); remark: listed apart in the source
[5] = target: C receptor type 2, the C3d receptor (human (endogenous in Raji)) (UniProt P20023)
[6] = target: C receptor type 1, the C3b receptor (human (endogenous in erythrocytes, monocytes and neutrophils)) (UniProt P17927); remark: listed apart in the source
[7] = target: C receptor type 1, the C3b receptor (human (endogenous in erythrocytes, monocytes and neutrophils)) (UniProt P17927); remark: listed apart in the source

Sequence of C receptor type 1, the C3b receptor (human (endogenous in erythrocytes, monocytes and neutrophils)) (P17927 42-2039): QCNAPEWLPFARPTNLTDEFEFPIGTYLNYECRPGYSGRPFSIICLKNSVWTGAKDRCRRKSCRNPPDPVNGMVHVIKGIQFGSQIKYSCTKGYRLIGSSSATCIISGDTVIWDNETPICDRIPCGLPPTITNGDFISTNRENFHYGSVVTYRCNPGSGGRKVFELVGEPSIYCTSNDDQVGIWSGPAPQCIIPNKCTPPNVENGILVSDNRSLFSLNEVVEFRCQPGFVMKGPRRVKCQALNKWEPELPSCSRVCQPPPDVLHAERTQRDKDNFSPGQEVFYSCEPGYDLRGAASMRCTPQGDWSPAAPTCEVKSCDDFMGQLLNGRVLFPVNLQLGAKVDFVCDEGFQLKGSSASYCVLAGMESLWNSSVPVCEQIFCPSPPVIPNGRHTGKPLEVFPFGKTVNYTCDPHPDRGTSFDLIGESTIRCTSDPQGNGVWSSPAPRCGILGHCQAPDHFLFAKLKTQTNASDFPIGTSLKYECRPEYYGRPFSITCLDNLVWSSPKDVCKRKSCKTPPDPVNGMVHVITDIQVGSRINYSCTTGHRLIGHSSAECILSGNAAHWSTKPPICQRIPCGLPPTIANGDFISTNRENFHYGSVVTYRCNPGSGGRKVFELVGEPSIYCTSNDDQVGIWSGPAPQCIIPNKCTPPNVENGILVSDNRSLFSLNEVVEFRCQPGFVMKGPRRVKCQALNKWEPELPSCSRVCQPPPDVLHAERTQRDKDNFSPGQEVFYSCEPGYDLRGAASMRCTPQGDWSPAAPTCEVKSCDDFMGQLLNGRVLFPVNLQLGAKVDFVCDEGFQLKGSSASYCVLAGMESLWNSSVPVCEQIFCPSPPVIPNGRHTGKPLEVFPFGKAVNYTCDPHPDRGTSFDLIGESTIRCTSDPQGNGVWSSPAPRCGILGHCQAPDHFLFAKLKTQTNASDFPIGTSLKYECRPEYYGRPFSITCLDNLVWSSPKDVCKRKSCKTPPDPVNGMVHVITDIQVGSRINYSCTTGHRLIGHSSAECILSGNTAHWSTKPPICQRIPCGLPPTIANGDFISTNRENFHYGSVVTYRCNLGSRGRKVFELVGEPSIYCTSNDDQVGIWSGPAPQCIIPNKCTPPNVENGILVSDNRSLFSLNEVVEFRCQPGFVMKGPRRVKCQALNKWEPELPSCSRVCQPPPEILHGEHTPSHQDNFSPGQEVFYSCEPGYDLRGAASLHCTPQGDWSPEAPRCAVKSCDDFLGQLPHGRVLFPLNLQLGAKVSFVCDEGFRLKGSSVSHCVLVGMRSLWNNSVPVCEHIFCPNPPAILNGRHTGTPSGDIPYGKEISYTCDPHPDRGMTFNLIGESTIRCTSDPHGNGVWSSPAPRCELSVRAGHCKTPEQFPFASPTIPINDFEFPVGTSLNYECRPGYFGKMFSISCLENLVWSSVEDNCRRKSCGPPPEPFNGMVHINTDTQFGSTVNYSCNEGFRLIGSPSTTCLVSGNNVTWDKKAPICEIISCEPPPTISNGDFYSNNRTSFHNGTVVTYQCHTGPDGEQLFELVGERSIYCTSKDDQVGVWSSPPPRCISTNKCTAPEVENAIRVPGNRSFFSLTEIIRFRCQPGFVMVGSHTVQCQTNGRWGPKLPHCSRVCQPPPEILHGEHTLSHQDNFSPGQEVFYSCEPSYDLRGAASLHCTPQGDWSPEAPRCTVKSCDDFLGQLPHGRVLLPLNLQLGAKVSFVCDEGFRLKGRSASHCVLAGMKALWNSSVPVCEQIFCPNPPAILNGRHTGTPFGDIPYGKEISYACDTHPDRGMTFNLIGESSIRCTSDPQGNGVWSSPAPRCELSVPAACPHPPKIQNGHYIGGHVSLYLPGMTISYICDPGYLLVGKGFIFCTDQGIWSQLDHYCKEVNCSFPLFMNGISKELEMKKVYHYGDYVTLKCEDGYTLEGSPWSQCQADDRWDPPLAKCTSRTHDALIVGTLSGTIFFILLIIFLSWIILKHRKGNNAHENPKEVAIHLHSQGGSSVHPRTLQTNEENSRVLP
Sequence of C receptor type 2, the C3d receptor (human (endogenous in Raji)) (P20023 21-1033): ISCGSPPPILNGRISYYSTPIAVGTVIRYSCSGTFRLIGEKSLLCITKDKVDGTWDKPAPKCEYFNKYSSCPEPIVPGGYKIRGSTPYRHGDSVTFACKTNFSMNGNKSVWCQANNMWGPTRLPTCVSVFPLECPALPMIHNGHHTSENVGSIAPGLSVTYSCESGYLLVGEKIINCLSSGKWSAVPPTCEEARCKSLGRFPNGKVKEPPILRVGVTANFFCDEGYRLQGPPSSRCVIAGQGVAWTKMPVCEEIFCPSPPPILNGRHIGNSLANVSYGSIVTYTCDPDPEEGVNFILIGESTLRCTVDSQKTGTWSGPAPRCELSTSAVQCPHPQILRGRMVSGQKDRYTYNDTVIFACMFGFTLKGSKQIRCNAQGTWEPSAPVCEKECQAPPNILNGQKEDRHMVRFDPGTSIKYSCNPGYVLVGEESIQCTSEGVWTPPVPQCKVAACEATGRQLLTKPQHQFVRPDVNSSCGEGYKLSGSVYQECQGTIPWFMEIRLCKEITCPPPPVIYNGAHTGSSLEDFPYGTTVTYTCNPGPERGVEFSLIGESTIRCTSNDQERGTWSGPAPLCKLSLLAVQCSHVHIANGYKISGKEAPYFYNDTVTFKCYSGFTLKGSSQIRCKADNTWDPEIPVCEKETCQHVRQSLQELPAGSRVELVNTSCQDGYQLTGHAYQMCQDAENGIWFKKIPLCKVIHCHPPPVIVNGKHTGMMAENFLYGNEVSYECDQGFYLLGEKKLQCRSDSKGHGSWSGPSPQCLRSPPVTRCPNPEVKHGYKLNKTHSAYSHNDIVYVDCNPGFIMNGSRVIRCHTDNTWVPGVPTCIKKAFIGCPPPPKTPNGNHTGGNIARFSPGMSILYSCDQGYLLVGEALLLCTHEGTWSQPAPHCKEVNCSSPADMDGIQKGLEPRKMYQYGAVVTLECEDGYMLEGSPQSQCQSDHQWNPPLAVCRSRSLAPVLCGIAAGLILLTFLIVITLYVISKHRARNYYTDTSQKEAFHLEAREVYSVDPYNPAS
Sequence of C3c (P01024 23-1663): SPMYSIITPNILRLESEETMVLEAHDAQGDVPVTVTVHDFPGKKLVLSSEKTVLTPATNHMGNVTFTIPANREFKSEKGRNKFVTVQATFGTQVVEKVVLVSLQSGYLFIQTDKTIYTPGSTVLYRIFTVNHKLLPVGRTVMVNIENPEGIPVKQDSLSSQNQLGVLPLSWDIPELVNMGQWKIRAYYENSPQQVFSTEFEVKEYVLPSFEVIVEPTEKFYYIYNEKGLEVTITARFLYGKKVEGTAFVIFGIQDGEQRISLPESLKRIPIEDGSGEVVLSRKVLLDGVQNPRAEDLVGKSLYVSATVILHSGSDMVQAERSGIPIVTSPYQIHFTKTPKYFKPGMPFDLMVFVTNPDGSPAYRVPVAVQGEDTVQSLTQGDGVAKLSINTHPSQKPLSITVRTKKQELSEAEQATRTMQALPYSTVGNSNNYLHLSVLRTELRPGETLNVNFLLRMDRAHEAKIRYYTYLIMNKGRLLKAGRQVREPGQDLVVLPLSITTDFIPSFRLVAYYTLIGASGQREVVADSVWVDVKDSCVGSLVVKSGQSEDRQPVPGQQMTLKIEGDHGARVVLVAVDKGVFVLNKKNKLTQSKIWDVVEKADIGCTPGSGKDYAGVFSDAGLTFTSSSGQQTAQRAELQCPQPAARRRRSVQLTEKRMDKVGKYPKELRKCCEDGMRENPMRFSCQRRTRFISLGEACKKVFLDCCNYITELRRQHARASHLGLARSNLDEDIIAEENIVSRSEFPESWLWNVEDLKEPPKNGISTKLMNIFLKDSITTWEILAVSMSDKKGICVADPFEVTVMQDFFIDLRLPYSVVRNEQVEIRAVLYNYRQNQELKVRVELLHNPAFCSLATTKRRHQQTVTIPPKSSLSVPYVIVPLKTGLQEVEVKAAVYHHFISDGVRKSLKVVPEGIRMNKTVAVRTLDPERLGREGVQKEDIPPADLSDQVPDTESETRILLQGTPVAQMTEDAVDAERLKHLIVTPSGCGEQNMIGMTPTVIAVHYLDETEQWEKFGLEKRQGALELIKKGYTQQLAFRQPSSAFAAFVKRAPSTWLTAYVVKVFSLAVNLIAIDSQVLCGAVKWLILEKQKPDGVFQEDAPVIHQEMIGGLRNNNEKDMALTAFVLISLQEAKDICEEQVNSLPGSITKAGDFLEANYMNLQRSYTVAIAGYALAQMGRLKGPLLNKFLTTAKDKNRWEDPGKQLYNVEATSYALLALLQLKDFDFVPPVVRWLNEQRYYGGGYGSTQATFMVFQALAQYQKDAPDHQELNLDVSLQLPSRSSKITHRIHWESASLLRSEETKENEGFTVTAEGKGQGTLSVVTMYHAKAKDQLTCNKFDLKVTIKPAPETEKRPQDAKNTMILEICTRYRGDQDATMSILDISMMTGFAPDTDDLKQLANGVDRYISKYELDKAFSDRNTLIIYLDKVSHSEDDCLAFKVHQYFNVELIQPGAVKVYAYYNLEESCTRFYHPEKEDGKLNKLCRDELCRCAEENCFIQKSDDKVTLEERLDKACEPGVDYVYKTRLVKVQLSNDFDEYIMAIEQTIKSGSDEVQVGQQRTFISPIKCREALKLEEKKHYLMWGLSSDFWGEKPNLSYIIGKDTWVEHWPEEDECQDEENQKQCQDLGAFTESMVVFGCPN

C3c (from UniProt P01024 23-667; P01024 749-954; P01024 1321-1663) (domain or fragment)
% rosette formation (C3c microspheres, erythrocytes, buffer) [1]: 72% | % rosette formation (C3c microspheres, monocytes, buffer) [1]: 80%

iC3b (inactivated C3b) (from UniProt P01024 23-667; P01024 749-1663; P01024 749-1663) (domain or fragment)
% rosette formation (erythrocytes, 37 x 10^3 iC3b per E) [2]: 15% | % rosette formation (erythrocytes, 65 x 10^3 iC3b per E) [2]: 22% | % rosette formation (monocytes treated with anti-Mac-1, 14 x 10^3 iC3b per E) [2]: 5% | % rosette formation (monocytes treated with anti-Mac-1, 65 x 10^3 iC3b per E) [2]: 75% | % rosette formation (neutrophils treated with anti-Mac-1, 14 x 10^3 iC3b per E) [2]: 4% | % rosette formation (neutrophils treated with anti-Mac-1, 65 x 10^3 iC3b per E) [2]: 95% | % rosette formation (monocytes treated with anti-CR1, 14 x 10^3 iC3b per E) [3]: 74% | % rosette formation (monocytes treated with anti-CR1, 65 x 10^3 iC3b per E) [3]: 85% | % rosette formation (monocytes, 7.9 x 10^3 iC3b per E) [3]: 59% | % rosette formation (neutrophils treated with anti-CR1, 14 x 10^3 iC3b per E) [3]: 79% | % rosette formation (neutrophils treated with anti-CR1, 65 x 10^3 iC3b per E) [3]: 92% | % rosette formation (erythrocytes, 14 x 10^3 iC3b per E) [1]: 21% | % rosette formation (erythrocytes, 37 x 10^3 iC3b per E) [1]: 39% | % rosette formation (erythrocytes, 65 x 10^3 iC3b per E) [1]: 60% | % rosette formation (iC3b microspheres, erythrocytes, buffer) [1]: 75% | % rosette formation (iC3b microspheres, monocytes, buffer) [1]: 96% | % rosette formation (monocytes treated with anti-Mac-1, 14 x 10^3 iC3b per E) [1]: 20% | % rosette formation (monocytes treated with anti-Mac-1, 65 x 10^3 iC3b per E) [1]: 92% | % rosette formation (neutrophils treated with anti-Mac-1, 14 x 10^3 iC3b per E) [1]: 13% | % rosette formation (neutrophils treated with anti-Mac-1, 65 x 10^3 iC3b per E) [1]: 100% | % rosette formation (anti-CR1-treated monocytes, 1.4 x 10^4 iC3b per E, BDVA) [4]: 84% | % rosette formation (anti-CR1-treated monocytes, 7.9 x 10^3 iC3b per E, BDVA) [4]: 44% | % rosette formation (monocytes treated with anti-CR1, 14 x 10^3 iC3b per E) [4]: 95% | % rosette formation (monocytes treated with anti-CR1, 65 x 10^3 iC3b per E) [4]: 94% | % rosette formation (monocytes, 7.9 x 10^3 iC3b per E) [4]: 86% | % rosette formation (neutrophils treated with anti-CR1, 14 x 10^3 iC3b per E) [4]: 100% | % rosette formation (neutrophils treated with anti-CR1, 65 x 10^3 iC3b per E) [4]: 100% | % rosette formation (iC3b microspheres, Raji cells, buffer) [5]: 98% | % rosette formation (erythrocytes, 37 x 10^3 iC3b per E) [6]: 5% | % rosette formation (erythrocytes, 65 x 10^3 iC3b per E) [6]: 8% | % rosette formation (monocytes treated with anti-Mac-1, 14 x 10^3 iC3b per E) [6]: 6% | % rosette formation (monocytes treated with anti-Mac-1, 65 x 10^3 iC3b per E) [6]: 74% | % rosette formation (monocytes, 14 x 10^3 iC3b per E) [6]: 8% | % rosette formation (monocytes, 65 x 10^3 iC3b per E) [6]: 77% | % rosette formation (neutrophils treated with anti-Mac-1, 14 x 10^3 iC3b per E) [6]: 3% | % rosette formation (neutrophils treated with anti-Mac-1, 65 x 10^3 iC3b per E) [6]: 93% | % rosette formation (neutrophils, 14 x 10^3 iC3b per E) [6]: 2% | % rosette formation (neutrophils, 37 x 10^3 iC3b per E) [6]: 78% | % rosette formation (neutrophils, 65 x 10^3 iC3b per E) [6]: 97% | % rosette formation (erythrocytes, 14 x 10^3 iC3b per E) [7]: 10% | % rosette formation (erythrocytes, 37 x 10^3 iC3b per E) [7]: 22% | % rosette formation (erythrocytes, 65 x 10^3 iC3b per E) [7]: 32% | % rosette formation (monocytes treated with anti-Mac-1, 14 x 10^3 iC3b per E) [7]: 13% | % rosette formation (monocytes treated with anti-Mac-1, 65 x 10^3 iC3b per E) [7]: 81% | % rosette formation (monocytes, 14 x 10^3 iC3b per E) [7]: 18% | % rosette formation (monocytes, 65 x 10^3 iC3b per E) [7]: 85% | % rosette formation (neutrophils treated with anti-Mac-1, 14 x 10^3 iC3b per E) [7]: 9% | % rosette formation (neutrophils treated with anti-Mac-1, 65 x 10^3 iC3b per E) [7]: 86% | % rosette formation (neutrophils, 14 x 10^3 iC3b per E) [7]: 11% | % rosette formation (neutrophils, 37 x 10^3 iC3b per E) [7]: 84% | % rosette formation (neutrophils, 65 x 10^3 iC3b per E) [7]: 88%

C3d,g (from UniProt P01024 1002-1303) (domain or fragment)
% rosette formation (C3d,g microspheres, Raji cells, buffer) [5]: 99% | % rosette formation (Raji cells, 6.9 x 10^4 C3d,g per E, buffer) [5]: 99%
